The results in this text go back to PMC4431990, “Functional and expression analyses of two kinds of betaine aldehyde dehydrogenases in a glycinebetaine-hyperaccumulating graminaceous halophyte, Leymus chinensis” (SpringerPlus, 2015).

Substrate in the data set “purified protein”: C[N+](C)(C)CC=O
As to the kind of experiment: purified protein. Conditions: 50 mM HEPES-KOH pH 8.0, 500 μM NAD+.

Substrate in data set [1]: C[N+](C)(C)CCC=O
As to the kind of experiment: spectrophotometric aldehyde dehydrogenase assay (NADH formation). Format: biochemical, Leymus chinensis. Conditions: 50 mM HEPES-KOH pH 8.0, 500 μM NAD+. The source says: (§1) spectrophotometric aldehyde dehydrogenase assay (NADH formation) on LcBADH1

Substrate in data set [2]: C[N+](C)(C)CCCC=O
The description is as above. It counts as biochemical, Leymus chinensis. Conditions: 50 mM HEPES-KOH pH 8.0, 500 μM NAD+.
Description: as §1

Substrate in data set [3]: NC(=O)c1ccc[n+]([C@@H]2O[C@H](COP(=O)(O)OP(=O)(O)OC[C@H]3O[C@@H](n4cnc5c(N)ncnc54)[C@H](O)[C@@H]3O)[C@@H](O)[C@H]2O)c1
The description is as above. It counts as biochemical, Leymus chinensis. Conditions: 50 mM HEPES-KOH pH 8.0, 5 mM betaine aldehyde.
Description: as §1

Substrate in data set [4]: NCCC=O
The description is as above. Format: biochemical, Leymus chinensis. Conditions: 50 mM HEPES-KOH pH 8.0, 500 μM NAD+.
Description: as §1

Substrate in data set [5]: NCCCC=O
The data set is described as above. Format: biochemical, Leymus chinensis. Conditions: 50 mM HEPES-KOH pH 8.0, 500 μM NAD+.
Description: as §1

Substrate in data set [6]: C[N+](C)(C)CCC=O
Described as above. It counts as biochemical, Leymus chinensis. Conditions: 50 mM HEPES-KOH pH 8.0, 500 μM NAD+. The source says:
(§2) spectrophotometric aldehyde dehydrogenase assay (NADH formation) on LcBADH2
The source holds these as a separate data set.

Substrate in data set [7]: C[N+](C)(C)CCCC=O
The description is as above. Format: biochemical, Leymus chinensis. Conditions: 50 mM HEPES-KOH pH 8.0, 500 μM NAD+.
Description: as §2
This is another data set of the same source.

Substrate in data set [8]: NC(=O)c1ccc[n+]([C@@H]2O[C@H](COP(=O)(O)OP(=O)(O)OC[C@H]3O[C@@H](n4cnc5c(N)ncnc54)[C@H](O)[C@@H]3O)[C@@H](O)[C@H]2O)c1
Described as above. It counts as biochemical, Leymus chinensis. Conditions: 50 mM HEPES-KOH pH 8.0, 200 μM betaine aldehyde.
Description: as §2

Substrate in data set [9]: NCCC=O
The description is as above. Format: biochemical, Leymus chinensis. Conditions: 50 mM HEPES-KOH pH 8.0, 500 μM NAD+.
Description: as §2
The source holds these as a separate data set.

Substrate in data set [10]: NCCCC=O
The description is as above. Format: biochemical, Leymus chinensis. Conditions: 50 mM HEPES-KOH pH 8.0, 500 μM NAD+.
Description: as §2
This is another data set of the same source.

Substrate in data set [11]: NC(=O)c1ccc[n+]([C@@H]2O[C@H](COP(=O)(O)OP(=O)(O)OC[C@H]3O[C@@H](n4cnc5c(N)ncnc54)[C@H](OP(=O)(O)O)[C@@H]3O)[C@@H](O)[C@H]2O)c1
Described as above. Format: biochemical, Leymus chinensis. Conditions: 50 mM HEPES-KOH pH 8.0, 200 μM betaine aldehyde.

B1: LcBADH1 (Leymus chinensis) (protein)
chain: MAAPPAIPRRGLFIGGGWREPTLGRRIPVINPATEDTIGDIPAATVEDVELAVAAARSAFLLDGGSRWSRASGATRAKYLNAIAAKIKEKISYLALLETVDSGKPKDEAVADMDDVAACFEYYAGLAEALDGKQHAPISLPMEEFKTYVLKEPIGVVGLITPWNYPLLMATWKVAPALAAGCTAVLKPSELASLTCLELGAICEEIGLPSGVLNIITGLGADAGAPIASHPHVDKIAFTGSTATSKTIMTAAAQMVKPVSLELGGKSPLVIFDDVADIDKAVEWAMFGCFFNGGQVCSATSRLLLREKIAERFLDRLVEWAKNIKISDPLEEGCRLGSVVSKGQYEKIKKFISTARSEGATILHGGDRPKHLGKGFFIEPTIITDVSTSMQIWREEVFGPVICVKVFKTESEAIELANDTHYGLAGGVISDDLERCERIAKVIHSGIVWINCSQPTLVQAPWGGNKQSGFGRELGEWGLENYLSVKQVTRYCKDELYGWYQRPSKL
notes: approx 54 kDa
In the case of B1, the Km was 27300 ± 7000 µM in the data set “purified protein”; 762 ± 175 µM in data set [1]; 56.5 ± 17.0 µM in data set [2]; 15.6 ± 5.70 µM in data set [3]; 27.4 ± 6.30 µM in data set [4]; 48.1 ± 12.6 µM in data set [5].

B2: LcBADH2 (Leymus chinensis) (protein)
chain: MASPAIPQRQLFIDGEWRAPALGRRLPVINPTTEASIGEIPSGTSEDVDAAVAAARAALKRNRGRDWSRAPGAVRAKYLRAIAAKMIERKADLARLEALDCGKPLDEAAWDMDDVAGCFEFFAGHAEALDKRQNAAVSLPENFKCHLKKEPIGVVSLITPWNYPLLMATWKVAPALAAGCTAVLKPSELASVTCLELADVCKEVGLPPGVLNVVTGLGPEAGAPLSSHPDVDKVAFTGSYATGQKIMVAAAPTVKAVTLELGGKSPIVVFDDVDIDKAVEWTLFGCFWTNGQICSATSRLLIHKNIAKEFVDRMVAWSKNIKVSDPLEEGCRLGPVVSEGQYEKIKKFISNAKSEGATILTGGVRPKHMEKGFFIEPTIITDINTSMEIWREEVFGPVLCVKEFSTEEEAIELANDTHYGLAGAVISGDRERCQRLAEEIDAGCIWVNCSQPCFCQAPWGGNKRSGFGRELGEGGIDNYLSIKQVTEYTSDAPWGWYKAPAN
notes: approx 54 kDa
In the case of B2, the Km in the data set “purified protein” was determined as 109 ± 10.0 µM; in data set [6], 91.4 ± 9.60 µM; in data set [7] it was 22.1 ± 1.50 µM; in [8], 7.66 ± 0.60 µM; in data set [9], 4.53 ± 0.81 µM; in data set [10], 1.96 ± 0.30 µM. In addition, the Km in data set [11] is 3680 ± 725 µM. The Vmax in “purified protein” was 1.59 µmol/min/mg; in data set [6] it was 1.01 µmol/min/mg; in data set [7], 1.33 µmol/min/mg; in [8], 1.36 µmol/min/mg; in data set [9] it was 2.16 µmol/min/mg; in data set [10], 1.29 µmol/min/mg.

By Km is commonly meant the substrate concentration at which the rate is half of its maximum. As a reminder, the Vmax is the top rate of the reaction or transport when substrate is in excess.
